Data reported in the RNAGym collection of RNA variant scans (doi:10.1073/pnas.2313332121).

B1: TPR t1 (parent)
chain: GACCAAUCUGCCCUCAGAGCUCGAGAACAUCUUCGGAUGCAGAGGAGGCAGGCUUCGGUGGCGCGAUAGCGCCAACGUCCUCAACCUCCAAUGCAUCCCACCACAUGAUGAUGCCUGAAGAGCCUUGGUUUUUUG

Variants of: B1
Experiment: polymerase ribozyme fitness, log enrichment relative to wild type (log ratio); higher = more active; in vitro selection for triplet polymerase activity
How it was run: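 Frozen incubation at −7 °C formed the core of a single, triplicate in vitro selection round applied to PCR-built, transcribed mutant libraries of each subunit of a heterodimeric triplet polymerase ribozyme. Extended constructs were gel-excised, captured with streptavidin beads and amplified by RT-PCR, and input and output libraries were Illumina-sequenced with a filter of ≥10 input reads and ≥1 read per output. Fitness is the logarithm of genotype enrichment relative to wild-type enrichment, with inverse-variance-weighted replicate averaging, and the logarithm is base 2.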

Variant | polymerase ribozyme fitness (log ratio)
G48U G57U A75G A83C G117A | -4.82
G48C C86U C115A | -1.07
G48A U54G G110C | -4.76
G47U C115U | -2.5
C49U C98U | -2.16
C49A U55C G61C C104U | -2.02
C49U U55G | -0.735
C49U C62A U96C | -1.91
G48A G128U | -2.69
G47U G48U G63U A111G | -4.04
G47U G57A U106G U132A | -4.76
G48C C62U C64U C97U A100U C123A | -2.01
G47U G52A A83C | -2.36
C49A C72U C97G G128C | -6.74
G48C A84G C85G C115A G127U | -4.98
C49G A90C U126C | -3.39
C49A C56U G120U | 0.2
C49U G69U C80A | -3.24
C49U C80G | -5.44
G48U A118G U125G | -2.75
C49U G60C | -0.958

Variant | polymerase ribozyme fitness (log ratio)
C49U G60U | -0.405
G47U U126G | -3.77
G47U G127C U130C | -2.06
G48A G69U C123U | 0.885
C49A G71A C98G A100C | -7.02
C49U G51U G71A C86U | -7.37
G48A C80A | -2.53
C49A A74C C94U U116A | -3.09
C49U G52A C73G A121U | -1.14
C49A C88A G113U A119U G128U | -6.41
G48U A90G U112A | -2.03
C49A G60A G135C | -0.655
G48A A100U | -1.19
G48A C64U A111G | -0.284
C49A U81C U129G | -3.78
G48A C70A C86G G107C G110U | -5.84
G47U G57A C73A C85G U106A U133A | -5.19
C49U G61U U81A C115G | -2.05
G48U G110A C124G U133A | -1.53
C49G G63U U92C | -3.98
G48A C73U C85A | -1.26

Variant | polymerase ribozyme fitness (log ratio)
G48C G128C | -2.75
G48U C56A C114G G127C | -5.92
G48U C49A C115U U133C | -2.27
C49A C79U C114U G120U | -4.69
C49U G60A C82U U106A G120C G135A | 0.366
G47U C56U G113U | -4.43
C49A A84C C99U | -3.55
G48C C72G U78G U92A C124G | -2.22
C49G C115U | -1.48
C49G C115G | -2.98
C49G C115A | -1.51
C49U C53U C72G C114U | -3.44
G48C C73U | -0.559
G48U A111C | -0.214
C49G U55C C98U | -2.01
C49U C94A | -2.8
G48A C62U | -0.525
G48U G60U G61A A83G U129G | -3.05
C49U C73A C114U | -2.58
C49U G120U | -0.184
C49U G120C | 0.88

Variant | polymerase ribozyme fitness (log ratio)
G47U C104A U133G | -4.19
C49U C124G | 0.761
C49G G120U U132A | -0.00759
C49U C62U C114G G117C U125C U129C | -7.74
C49U U54A U92C G120C G128A | -4.05
C49U G61C G71A A95G G113U | -7.48
G48A C70A | -2.36
C49A C115G | -1.85
G47U C114G | -4.11
G47U G51A A121G G128U | -3.97
G48A C73A G127C | -1.15
G47U U87G U129A | -4.44
G48C C79U G128C | -4.29
G47U C70U | -1.87
C49U C85G U96G | -2.99
G48C C56G C62U U78C C115U C124A | -2.1
C49U C64U | -0.897
G47U C72U U87C C98G U112A | -7.3
A50C A84C | -1.1
G48C A83U A111C A118C | -0.0367
G48U A100C A105C C123U | -4.99
